Experimental data published in paper PMC2965030.

What was measured:
[1] = target: Glu-plasminogen (Homo sapiens) (UniProt P00747); settings: cited from earlier work
[2] = target: β2-glycoprotein I (human) (UniProt P02749); assay: optical biosensor
Sequence of β2-glycoprotein I (human) (P02749 20-345): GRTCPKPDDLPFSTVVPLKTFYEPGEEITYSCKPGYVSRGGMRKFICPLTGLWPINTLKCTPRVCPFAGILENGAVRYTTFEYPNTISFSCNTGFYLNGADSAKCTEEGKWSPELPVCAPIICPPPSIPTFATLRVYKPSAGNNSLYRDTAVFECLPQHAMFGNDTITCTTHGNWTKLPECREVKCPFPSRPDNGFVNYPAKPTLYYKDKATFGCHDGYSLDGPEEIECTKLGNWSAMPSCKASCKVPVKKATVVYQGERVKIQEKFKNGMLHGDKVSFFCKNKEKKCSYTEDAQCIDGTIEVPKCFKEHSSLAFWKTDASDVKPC

Sequence of β2-glycoprotein I (nicked) (P02749 20-345): as above
Sequence of Glu-plasminogen (Homo sapiens) (P00747 20-810): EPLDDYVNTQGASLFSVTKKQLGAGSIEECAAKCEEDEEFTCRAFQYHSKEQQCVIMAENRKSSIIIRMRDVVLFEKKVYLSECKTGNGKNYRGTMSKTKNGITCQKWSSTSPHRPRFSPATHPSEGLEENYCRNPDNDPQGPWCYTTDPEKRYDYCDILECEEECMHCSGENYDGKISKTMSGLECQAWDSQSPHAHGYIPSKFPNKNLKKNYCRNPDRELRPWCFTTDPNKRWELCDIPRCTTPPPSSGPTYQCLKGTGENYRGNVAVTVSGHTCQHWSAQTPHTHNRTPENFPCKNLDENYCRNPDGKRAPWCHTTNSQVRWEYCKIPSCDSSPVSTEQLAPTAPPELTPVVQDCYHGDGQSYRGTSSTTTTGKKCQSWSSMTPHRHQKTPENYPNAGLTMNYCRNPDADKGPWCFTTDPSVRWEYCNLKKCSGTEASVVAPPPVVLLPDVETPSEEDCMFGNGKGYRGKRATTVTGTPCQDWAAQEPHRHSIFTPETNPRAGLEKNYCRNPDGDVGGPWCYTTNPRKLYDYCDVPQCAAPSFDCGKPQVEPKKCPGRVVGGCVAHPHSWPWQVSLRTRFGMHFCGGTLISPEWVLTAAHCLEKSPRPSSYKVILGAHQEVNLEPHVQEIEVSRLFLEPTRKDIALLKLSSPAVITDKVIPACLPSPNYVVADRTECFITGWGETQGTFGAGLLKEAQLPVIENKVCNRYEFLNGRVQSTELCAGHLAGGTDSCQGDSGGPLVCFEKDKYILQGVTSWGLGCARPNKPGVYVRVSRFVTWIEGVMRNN

| Substance | Kd [1] | koff [2] | kon [2] |
| --- | --- | --- | --- |
| β2-glycoprotein I (nicked) (from UniProt P02749) | 370 nM |  |  |
| tissue-type plasminogen activator (enzyme) |  | 0.00619 s⁻¹ | 113000 M⁻¹ s⁻¹ |
